From US11739297B2, “Method of increasing tumor killing activity of macrophages or monocytes comprising chimeric antigen receptor” (Carisma Therapeutics Inc., priority 2020, dated 2023)

Tests used:
[1] = tested on: human macrophages; assay: Viability, CAR expression and M1/M2 markers of HER2 CAR mRNA electroporated macrophages cultured with cytokines; assay type: cell-based; conditions: mRNA transfected CAR macrophages
Method: Human macrophages were electroporated with HER2 CAR mRNA comprising m6AGCap1 and PsU modifications. Cells were cultured with cytokines that induce an M1 phenotype such as IFN-alpha, IFN-beta, IFN-gamma, IFN-gamma plus lipopolysaccharide (LPS), TNF-alpha, IL-6 or a STING ligand (STING-L) for up to 48 hours and then cytokines were washed off and fresh media was added. CAR expression and M1 marker expression were measured on days 2 and 7 after transfection. Fluorescent labeled HER2+ breast cancer cells (CRL2351) were co-cultured with HER2 CAR macrophages two days after the macrophages were transfected. Cancer cell growth was monitored via its fluorescence on an Incucyte® live imaging microscope every four hours. The Effector (CAR macrophage) to Target (cancer cell) ratio was 5:1.
Five different mRNA modifications were also tested to determine if interferon treatment differentially affected macrophages transfected with mRNA comprising different modifications. Human macrophages were electroporated with HER2 CAR mRNA comprising different mRNA modifications. CAR expression and M1 markers were detected by Flow Cytometry (Attune) on day four after electroporation. Day 4 CAR macrophage cells were then co-cultured with a Nuc-Light labeled, HER2+ breast cancer cell line (CRL2351) at an Effector (CAR macrophage) to Target (cancer cell) ratio of 5:1. Cancer cell growth was monitored via its fluorescence on an Incucyte® live imaging microscope every four hours.
Human macrophages were electroporated with 300 nM CAR mRNA comprising m6AGCap1 and PsU modifications. Cells were cultured with 20 ng/mL IFNs for 24 hours and then the cells were washed to remove cytokines. CAR expression was detected by Flow Cytometry (Attune) on day 2 after transfection. Cells were then co-cultured with a Nuc-Light labeled, HER2+ breast cancer cell line (CRL2351) at the Effector to Target ratio of 3:1. Cancer cell growth was monitored via its fluorescence on an Incucyte® live imaging microscope. CAR expression and M1 markers in macrophages were detected by Flow Cytometry (Attune) on day 7 after transfection.

[2] = tested on: HER2+ breast cancer cells (CRL2351); assay: Cytokine secretion of interferon treated HER2 CAR macrophages in co-culture (MSD); assay type: cell-based, human; conditions: 150 nM CAR mRNA, E:T 3:1, 48 hours co-culture
Method: Human macrophages were electroporated with 150 nM HER2 CAR mRNA comprising m6AGCap1 and PsU modifications. HER2+ breast cancer cells (CRL2351) were co-cultured with CAR macrophages after the macrophages were transfected with the CAR mRNA at an Effector (CAR macrophage) to Target (cancer cell) ratio of 3:1. Supernatant was collected 48 hours after the cancer cells and macrophages were co-cultured and cytokine levels were measured using a Meso Scale Discovery (MSD) instrument.

[3] = tested on: CRL-2351 cells expressing nuclear GFP; assay: Tumor cell killing by macrophages primed on agonist coated plates (Incucyte); assay type: cell-based, human; conditions: plate-coated agonist, 3 h priming
Method: (§1) To generate Her2-Zeta CAR expressing macrophages, primary human macrophages were suspended in EP buffer (MaxCyte) containing 300 nM mRNA (TriLink) at a concentration of 90×10^6 cells/mL. 100 μL of cell mixture was added to an electroporation cassette (OC100×2; MaxCyte) and electroporated using the Experimental T cell 1 setting. Cells were removed from the cassette, plated in 3 mL of TexMACS media (Miltenyi Biotech) containing 20% FBS (Gibco) on UpCell plates (Thermo Scientific), and incubated overnight at 37 C and 5% CO2.
(§2) Recombinant CD40 ligand (Peprotech), 4-1BB ligand (Enzo Life Sciences), and 4-1BB receptor (Peprotech) were resuspended in molecular grade water to a stock concentration of 100 μg/mL. Stock solution was then used to create working solutions in PBS ranging from 2-0.002 μg/mL. 100 uL of working solution was added to wells in a 96-well plate and left at room temperature for 4 h.
Plates were removed from the incubator and left at room temperature for 30 min. Cells were detached from plate, counted using the NC-200 automated cell counter (Chemomtech), and re-suspended in TexMACS media with 10% FBS. […] Cell lysis was detected using Incucyte® analysis (Essen Bioscience). Tumor cell death was calculated by integrated GFP intensity per well relative to time 0.

[4] = tested on: Her2-Zeta CAR expressing macrophages; assay: M1 and M2 surface marker expression after agonist priming (flow cytometry); assay type: cell-based, human; conditions: mRNA transduced CAR macrophages, 3 days on agonist coated wells
Method: as §1, §2
For detection of cell surface proteins, macrophages were plated onto wells coated with agonist molecules in a final volume of 200 uL TexMACS media+10% FBS+10 ng/mL GM-CSF and incubated for 3 days at 37 C and 5% CO2. Cells were incubated in 300 μL Accutase (Sigma) for 30 min and transferred to 96-well round bottom plate for staining. Cells were incubated in FACS buffer containing 20 μg/mL Her2-His for 20 min at RT, followed by incubation in Human TruStain FcX for 10 min at RT. […]

[5] = tested on: human macrophages; assay: mCherry mRNA expression in transfected macrophages (Incucyte); assay type: cell-based; conditions: mCherry mRNA (m6AGCap1 and PsU or N1mPsU), one day, different doses
Method: Human macrophages were transfected with mCherry mRNA comprising m6AGCap1 and PsU or N1mPsU modifications and were then cultured for one day with different doses of IFN-γ. mCherry expression was monitored on an Incucyte® live imaging microscope.
In order to determine whether an RNaseL inhibitor could rescue IFN-γ-induced instability of transfected mRNA, human macrophages were treated with 1 μM sunitinib (an RNaseL inhibitor) two hours prior to the transfection of mCherry mRNA comprising m6AGCap1 and PsU modifications. Transfected cells were then cultured for one day with different dosages of IFN-γ. mCherry expression was monitored on an Incucyte® live imaging microscope.
The effect of another RNaseL inhibitor (RLI or ABCE1) was also tested to further validate the concept. Human macrophages were co-transfected with mRNA encoding mCherry comprising m6AGCap 1 and PsU modifications and with mRNA encoding ABCE1.

IFN-α
M1 phenotype (based on CD86 expression) [1]: induction of an M1 phenotype
M2 markers (based on CD163 expression) [1]: reduction of M2 markers
secretion of the cytokines IL-6, IL-8 and TNFα [2]: increased secretion

B1: CD40L: Recombinant CD40 ligand (Peprotech), CD40 agonist (protein, UniProt P29965 113-261, looked up)
CD40 ligand, soluble form: MQKGDQNPQIAAHVISEASSKTTSVLQWAEKGYYTMSNNLVTLENGKQLTVKRQGLYYIYAQVTFCSNREASSQAPFIASLCLKSPGRFERILLRAANTHSSAKPCGQQSIHLGGVFELQPGASVFVNVTDPSQVSHGTGFTSFGLLKL
tumor killing ability of macrophages and CAR macrophages [3]: significantly improved the tumor killing ability
M1 phenotype (expression of M1 and M2 markers) [4]: induced an M1 phenotype

B2: IFN-γ: interferon cytokine that induces an M1 phenotype (protein, UniProt P01579 24-161, looked up)
Interferon gamma: QDPYVKEAENLKKYFNAGHSDVADNGTLFLGILKNWKEESDRKIMQSQIVSFYFKLFKNFKDDQSIQKSVETIKEDMNVKFFNSNKKKRDDFEKLTNYSVTDLNVQRKAIHELIQVMAELSPAAKTGKRKRSQMLFRG
M1 phenotype (based on CD86 expression) [1]: induction of an M1 phenotype
M2 markers (based on CD163 expression) [1]: reduction of M2 markers
mCherry expression [5]: reduced mCherry mRNA expression
secretion of the cytokines IL-6, IL-8 and TNFα [2]: increased secretion
